# T1: FcγRIIa H (human, UniProt P12318 34-217)
# T1 construct: extracellular domain; Soluble His-tagged extracellular domain expressed in FreeStyle293 cells; also called FcγRIIa type H; FcgRIIa H; not shown: His tag attached to the C terminus
# T1 sequence (looked up): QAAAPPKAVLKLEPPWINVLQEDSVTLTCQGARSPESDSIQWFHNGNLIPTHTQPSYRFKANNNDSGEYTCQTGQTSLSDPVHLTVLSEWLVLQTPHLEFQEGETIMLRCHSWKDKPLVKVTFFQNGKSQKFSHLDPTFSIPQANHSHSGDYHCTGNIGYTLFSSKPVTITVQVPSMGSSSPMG
# T2: FcγRIIb (human, UniProt P31994 43-217)
# T2 construct: extracellular domain; Soluble His-tagged extracellular domain expressed in FreeStyle293 cells; also called FcgRIIb; 2b; not shown: His tag attached to the C terminus
# T2 sequence (looked up): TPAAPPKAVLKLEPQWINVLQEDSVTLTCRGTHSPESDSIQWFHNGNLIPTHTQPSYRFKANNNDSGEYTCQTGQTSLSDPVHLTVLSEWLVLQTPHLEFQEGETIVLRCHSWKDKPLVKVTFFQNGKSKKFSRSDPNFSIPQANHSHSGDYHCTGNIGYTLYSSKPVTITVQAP
# Assays:
# FcγRIIa H [1] = biological target: T1, FcγRIIa H; experiment: SPR (Biacore); He/Con_2aH divided by He/Con_2b (FcγRIIb) of the same antibody
# Description: The heterodimerized antibodies He Abs in which one of the H chains was introduced with an alteration were assayed for their binding activities to each activating FcγR and inhibitory FcγR according to the method described in Example 4. […] The activating FcγRs in FIGS. 26, 27, 28, and 29 are FcγRIa, FcγRIIa (R), FcγRIIa (H), and FcγRIIIa, respectively.
# (§1) Analysis of interaction between objective antibody and the FcγR was carried out using Biacore T100 (GE Healthcare). HBS-EP+ (GE Healthcare) was used as the running buffer, and the measurement temperature was set to 25° C. Chips produced by immobilizing the antigen peptide by the amine coupling method to a Series S Sencor Chip CM5 (GE Healthcare), or alternatively, chips produced by allowing preliminarily biotinylated antigen peptides to interact with and immobilize onto a Series S Sensor Chip SA (certified) (GE Healthcare) were used. Antibodies of interest were captured onto an antigen peptide-immobilized chip, and allowed to interact to each FcγR diluted with running buffer. To regenerate and repeatedly use the chip, the antibodies captured on the chip were washed off by reacting 10 mM glycine-HCl, pH 1.5.
# FcγRIIa H [2] = biological target: T1, FcγRIIa H; experiment: SPR (Biacore), captured antibody, FcγR analyte; relative to GpH7-A5/GpH7-B3/GpL16-k0 = 100
# Description: as §1
# (§2) The FcγR-binding activity of each antibody was assessed primarily using as an indicator the FcγR-binding activity and dissociation constant for FcγR.
# FcγRIIb = biological target: T2, FcγRIIb; experiment: as above
# Description: as §1, §2
binder,measurement,setting,value
"GpH7-A5/GpH7-B3 variant N325_20W/GpL16-k0 (antibody, human IgG1, kappa, Heterodimerized anti-glypican-3 IgG1; mutation in the GpH7-B3 H chain only; also called He Ab) heavy 1: not shown heavy 2: not shown light: DIVMTQSPLSLPVTPGEPASISCQASESLVHSNRNTYLHWYLQKPGQSPQLLIYKVSNRFSGVPDRFSGSGSGTDFTLKISRVEAEDVGVYYCSQNTHVPPTFGQGTKVEIERTVAAPSVFIFPPSDEQLKSGTASVVCLLNNFYPREAKVQWKVDNALQSGNSQESVTEQDSKDSTYSLSSTLTLSKADYEKHKVYACEVTHQGLSSPVTKSFNRGEC",He_2aH/2b,FcγRIIa H [1],0.28 ratio
same,He/Con_2aH,FcγRIIa H [2],47.2 relative (control = 100)
same,He/Con_2b,FcγRIIb,169 relative (control = 100)
"GpH7-A5/GpH7-B3 variant P331_03V/GpL16-k0 (antibody, human IgG1, kappa, Heterodimerized anti-glypican-3 IgG1; mutation in the GpH7-B3 H chain only; also called He Ab) heavy 1: not shown heavy 2: not shown light: DIVMTQSPLSLPVTPGEPASISCQASESLVHSNRNTYLHWYLQKPGQSPQLLIYKVSNRFSGVPDRFSGSGSGTDFTLKISRVEAEDVGVYYCSQNTHVPPTFGQGTKVEIERTVAAPSVFIFPPSDEQLKSGTASVVCLLNNFYPREAKVQWKVDNALQSGNSQESVTEQDSKDSTYSLSSTLTLSKADYEKHKVYACEVTHQGLSSPVTKSFNRGEC",He_2aH/2b,FcγRIIa H [1],0.7 ratio
same,He/Con_2aH,FcγRIIa H [2],82.5 relative (control = 100)
same,He/Con_2b,FcγRIIb,119 relative (control = 100)
"GpH7-A5/GpH7-B3 variant P331_04F/GpL16-k0 (antibody, human IgG1, kappa, Heterodimerized anti-glypican-3 IgG1; mutation in the GpH7-B3 H chain only; also called He Ab) heavy 1: not shown heavy 2: not shown light: DIVMTQSPLSLPVTPGEPASISCQASESLVHSNRNTYLHWYLQKPGQSPQLLIYKVSNRFSGVPDRFSGSGSGTDFTLKISRVEAEDVGVYYCSQNTHVPPTFGQGTKVEIERTVAAPSVFIFPPSDEQLKSGTASVVCLLNNFYPREAKVQWKVDNALQSGNSQESVTEQDSKDSTYSLSSTLTLSKADYEKHKVYACEVTHQGLSSPVTKSFNRGEC",He_2aH/2b,FcγRIIa H [1],0.77 ratio
same,He/Con_2aH,FcγRIIa H [2],84.7 relative (control = 100)
same,He/Con_2b,FcγRIIb,110 relative (control = 100)
"GpH7-A5/GpH7-B3 variant P331_07I/GpL16-k0 (antibody, human IgG1, kappa, Heterodimerized anti-glypican-3 IgG1; mutation in the GpH7-B3 H chain only; also called He Ab) heavy 1: not shown heavy 2: not shown light: DIVMTQSPLSLPVTPGEPASISCQASESLVHSNRNTYLHWYLQKPGQSPQLLIYKVSNRFSGVPDRFSGSGSGTDFTLKISRVEAEDVGVYYCSQNTHVPPTFGQGTKVEIERTVAAPSVFIFPPSDEQLKSGTASVVCLLNNFYPREAKVQWKVDNALQSGNSQESVTEQDSKDSTYSLSSTLTLSKADYEKHKVYACEVTHQGLSSPVTKSFNRGEC",He_2aH/2b,FcγRIIa H [1],0.68 ratio
same,He/Con_2aH,FcγRIIa H [2],77.4 relative (control = 100)
same,He/Con_2b,FcγRIIb,114 relative (control = 100)
"GpH7-A5/GpH7-B3 variant P331_10E/GpL16-k0 (antibody, human IgG1, kappa, Heterodimerized anti-glypican-3 IgG1; mutation in the GpH7-B3 H chain only; also called He Ab) heavy 1: not shown heavy 2: not shown light: DIVMTQSPLSLPVTPGEPASISCQASESLVHSNRNTYLHWYLQKPGQSPQLLIYKVSNRFSGVPDRFSGSGSGTDFTLKISRVEAEDVGVYYCSQNTHVPPTFGQGTKVEIERTVAAPSVFIFPPSDEQLKSGTASVVCLLNNFYPREAKVQWKVDNALQSGNSQESVTEQDSKDSTYSLSSTLTLSKADYEKHKVYACEVTHQGLSSPVTKSFNRGEC",He_2aH/2b,FcγRIIa H [1],0.75 ratio
same,He/Con_2aH,FcγRIIa H [2],87.1 relative (control = 100)
same,He/Con_2b,FcγRIIb,116 relative (control = 100)
"GpH7-A5/GpH7-B3 variant P331_15Y/GpL16-k0 (antibody, human IgG1, kappa, Heterodimerized anti-glypican-3 IgG1; mutation in the GpH7-B3 H chain only; also called He Ab) heavy 1: not shown heavy 2: not shown light: DIVMTQSPLSLPVTPGEPASISCQASESLVHSNRNTYLHWYLQKPGQSPQLLIYKVSNRFSGVPDRFSGSGSGTDFTLKISRVEAEDVGVYYCSQNTHVPPTFGQGTKVEIERTVAAPSVFIFPPSDEQLKSGTASVVCLLNNFYPREAKVQWKVDNALQSGNSQESVTEQDSKDSTYSLSSTLTLSKADYEKHKVYACEVTHQGLSSPVTKSFNRGEC",He_2aH/2b,FcγRIIa H [1],0.75 ratio
same,He/Con_2aH,FcγRIIa H [2],86 relative (control = 100)
same,He/Con_2b,FcγRIIb,114 relative (control = 100)
"GpH7-A5/GpH7-B3 variant P331_16H/GpL16-k0 (antibody, human IgG1, kappa, Heterodimerized anti-glypican-3 IgG1; mutation in the GpH7-B3 H chain only; also called He Ab) heavy 1: not shown heavy 2: not shown light: DIVMTQSPLSLPVTPGEPASISCQASESLVHSNRNTYLHWYLQKPGQSPQLLIYKVSNRFSGVPDRFSGSGSGTDFTLKISRVEAEDVGVYYCSQNTHVPPTFGQGTKVEIERTVAAPSVFIFPPSDEQLKSGTASVVCLLNNFYPREAKVQWKVDNALQSGNSQESVTEQDSKDSTYSLSSTLTLSKADYEKHKVYACEVTHQGLSSPVTKSFNRGEC",He_2aH/2b,FcγRIIa H [1],0.73 ratio
same,He/Con_2aH,FcγRIIa H [2],84.5 relative (control = 100)
same,He/Con_2b,FcγRIIb,116 relative (control = 100)
"GpH7-A5/GpH7-B3 variant P331_20W/GpL16-k0 (antibody, human IgG1, kappa, Heterodimerized anti-glypican-3 IgG1; mutation in the GpH7-B3 H chain only; also called He Ab) heavy 1: not shown heavy 2: not shown light: DIVMTQSPLSLPVTPGEPASISCQASESLVHSNRNTYLHWYLQKPGQSPQLLIYKVSNRFSGVPDRFSGSGSGTDFTLKISRVEAEDVGVYYCSQNTHVPPTFGQGTKVEIERTVAAPSVFIFPPSDEQLKSGTASVVCLLNNFYPREAKVQWKVDNALQSGNSQESVTEQDSKDSTYSLSSTLTLSKADYEKHKVYACEVTHQGLSSPVTKSFNRGEC",He_2aH/2b,FcγRIIa H [1],0.75 ratio
same,He/Con_2aH,FcγRIIa H [2],82.8 relative (control = 100)
same,He/Con_2b,FcγRIIb,111 relative (control = 100)

# From US20180155451A1 (published 2018)
